The target in one assay is T1, V30A.
T1 construct: also called hCD27 V30A
T1 receptor: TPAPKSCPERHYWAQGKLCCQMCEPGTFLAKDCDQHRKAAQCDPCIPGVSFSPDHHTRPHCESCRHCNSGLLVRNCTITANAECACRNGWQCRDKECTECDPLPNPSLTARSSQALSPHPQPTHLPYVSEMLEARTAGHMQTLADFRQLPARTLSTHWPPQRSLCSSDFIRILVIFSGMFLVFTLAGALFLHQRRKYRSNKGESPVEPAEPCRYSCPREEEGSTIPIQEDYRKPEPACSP
The assay can be described thus: flow cytometry, CHO-K1; sub-column 1 of 2.

A further assay concerns the target T2, D32A.
T2 construct: also called hCD27 D32A
T2 receptor: T1 receptor with A30V, D32A
In words: flow cytometry, CHO-K1; sub-column 1 of 2.

The target in the next assay is T3, H36A.
T3 construct: also called hCD27 H36A
T3 receptor: T1 receptor with A30V, H36A
In words: flow cytometry, CHO-K1; sub-column 1 of 2.

Another assay has as its target T4, P44A.
T4 construct: also called hCD27 P44A
T4 receptor: T1 receptor with A30V, P44A
The assay can be described thus: flow cytometry, CHO-K1; sub-column 1 of 2.

Assay [1] deals with T5, H60A.
T5 construct: also called hCD27 H60A
T5 receptor: T1 receptor with A30V, H60A
The assay can be described thus: flow cytometry, CHO-K1; sub-column 1 of 2.

The next assay has as its target T6, S63A.
T6 construct: also called hCD27 S63A
T6 receptor: T1 receptor with A30V, S63A
In words: flow cytometry, CHO-K1; sub-column 1 of 2.

A further assay addresses T7, G89A.
T7 construct: also called hCD27 G89A
T7 receptor: T1 receptor with A30V, G89A
The assay can be described thus: flow cytometry, CHO-K1; sub-column 1 of 2.

A further assay deals with T8, R37A.
T8 construct: also called hCD27 R37A
T8 receptor: T1 receptor with A30V, R37A
The assay can be described thus: flow cytometry, CHO-K1; sub-column 2 of 2.

The next assay deals with T9, Q41A.
T9 construct: also called hCD27 Q41A
T9 receptor: T1 receptor with A30V, Q41A
In words: flow cytometry, CHO-K1; sub-column 2 of 2.

The target in assay [2] is T5, H60A. The assay can be described thus: flow cytometry, CHO-K1; sub-column 2 of 2.
In another assay the target is T10, W90A.
T10 construct: also called hCD27 W90A
T10 receptor: T1 receptor with A30V, W90A
The assay can be described thus: flow cytometry, CHO-K1; sub-column 2 of 2.

Substitutions are numbered along the chain they refer to.

The record followed here is patent publication US20190300618A1 (Merck Sharp & Dohme, published 2019).

With 1A4 (mouse IgG1) (antibody), the % of WT hCD27 binding (geo mean FITC) was found to be 161% in the assay with V30A; 43.7% with D32A; 111% in the assay with H36A; 146% with P44A; 167% with H60A [1]; 158% in the assay with S63A. For the same molecule, the % of WT hCD27 binding (geo mean FITC) stood at 100% in the assay with G89A; 87% in the assay with R37A; 76.1% with Q41A; 120% in the assay with H60A [2]; 96.4% in the assay with W90A.

On to 9F4 (mouse IgG2a) (antibody), for which the % of WT hCD27 binding (geo mean FITC) with V30A amounted to 166%; with D32A, 118%; with H36A, 88.5%; with P44A, 159%; in the assay with H60A [1], 185%; with S63A, 153%. The % of WT hCD27 binding (geo mean FITC) stood at 116% in the assay with G89A; 6.2% in the assay with R37A; 71.3% with Q41A; 126% with H60A [2]; 85.7% with W90A.

B1: Antibody hCD27.131A (mouse parental 131A) (antibody, V domains shown)
VH: QIQLVQSGPELKKPGETVKISCKASGYTFTNYGMNWVKQAPGKGLKWMGWINTNTGEPTYAEEFKGRFAFSLETSATTAYLQINNLKNEDTATYFCAREGDAMDYWGQGTSVTVSS
VL: QIVLTQSPAIMSASPGEKVTMTCSASSSVSYMHWYQQKSGTSPKRWIYDTSKLASGVPARFSGSGSGTSYSLTISSMEAEDAATYYCQQWNSYPFTFGSGTKLEIK
notes: mouse IgG1; also called mouse hCD27.131A
Take B1: the “% of WT hCD27 binding (geo mean FITC)” value with V30A was found to be 170%; in the assay with D32A, 113%; in the assay with H36A it was 54.1%; with P44A, 158%; with H60A [1], 178%; in the assay with S63A, 162%. For the same molecule, the “% of WT hCD27 binding (geo mean FITC)” value with G89A was determined as 113%; with R37A it was 9.6%; in the assay with Q41A, 80.5%; with H60A [2], 129%; with W90A it was 102%.
